{"source": "paper PMC11127164", "about": "“Brefeldin A and M-COPA block the export of RTKs from the endoplasmic reticulum via simultaneous inactivation of ARF1, ARF4, and ARF5” (The Journal of Biological Chemistry, 2024)", "binders": {"B1": {"name": "ADP-ribosylation factor 5 (natural protein, human (endogenous in GIST-T1 and PC-9), UniProt P84085 1-180, looked up)", "chain": "MGLTVSALFSRIFGKKQMRILMVGLDAAGKTTILYKLKLGEIVTTIPTIGFNVETVEYKNICFTVWDVGGQDKIRPLWRHYFQNTQGLIFVVDSNDRERVQESADELQKMLQEDELRDAVLLVFANKQDMPNAMPVSELTDKLGLQHLRSRTWYVQATCATQGTGLYDGLDWLSHELSKR", "notes": "ADP-ribosylation factor 5 (ARF5), human, endogenous in GIST-T1 and PC-9 cells; also called ARF5; source: endogenous, GIST-T1 and PC-9 lysate"}, "B2": {"name": "ADP-ribosylation factor 4 (natural protein, human (endogenous in GIST-T1 and PC-9), UniProt P18085 1-180, looked up)", "chain": "MGLTISSLFSRLFGKKQMRILMVGLDAAGKTTILYKLKLGEIVTTIPTIGFNVETVEYKNICFTVWDVGGQDRIRPLWKHYFQNTQGLIFVVDSNDRERIQEVADELQKMLLVDELRDAVLLLFANKQDLPNAMAISEMTDKLGLQSLRNRTWYVQATCATQGTGLYEGLDWLSNELSKR", "notes": "ADP-ribosylation factor 4 (ARF4), human, endogenous in GIST-T1 and PC-9 cells; also called ARF4; source: endogenous, GIST-T1 and PC-9 lysate"}, "B3": {"name": "ADP-ribosylation factor 1 (natural protein)", "chain": "not shown", "notes": "ADP-ribosylation factor 1 (ARF1), human, endogenous in GIST-T1 and PC-9 cells; also called ARF1; source: endogenous, GIST-T1 and PC-9 lysate"}}, "data": [{"biological_target": "T1, glutathione S-transferase-fused Golgi-localized γ-adaptin ear-containing, ARF-binding protein 3 (1–316) (UniProt Q9NZ52 1-316)", "T1 construct": "also called GST-GGA3; GST-GGA3(1–316); source: bought: Cytoskeleton, coated on Sepharose beads", "T1 sequence (looked up)": "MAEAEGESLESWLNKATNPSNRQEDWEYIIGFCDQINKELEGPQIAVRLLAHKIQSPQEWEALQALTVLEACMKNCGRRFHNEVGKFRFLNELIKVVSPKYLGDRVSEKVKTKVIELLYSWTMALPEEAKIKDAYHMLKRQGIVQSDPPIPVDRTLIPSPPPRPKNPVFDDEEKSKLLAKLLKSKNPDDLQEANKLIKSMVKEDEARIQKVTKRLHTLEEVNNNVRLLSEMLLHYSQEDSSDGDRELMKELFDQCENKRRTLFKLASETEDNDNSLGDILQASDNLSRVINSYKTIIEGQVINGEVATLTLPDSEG", "assay": "pull-down; GST-GGA3(1–316)-coated Sepharose beads incubated with lysates of GIST-T1 or PC-9 cells at 4 °C for 1 h, washed once, immunoblot for ARFs; cells untreated or treated with 1 μM M-COPA or 1 μM BFA for 4 h (GIST-T1) or 200 nM M-COPA for 8 h (PC-9)", "conditions": "one partner purified", "units": {"level of GGA3-bound ARF after M-COPA treatment of the cells, relative to the untreated control": "%"}, "values": [{"binder": "B1", "level of GGA3-bound ARF after M-COPA treatment of the cells, relative to the untreated control": "< 18"}, {"binder": "B2", "level of GGA3-bound ARF after M-COPA treatment of the cells, relative to the untreated control": "< 18"}, {"binder": "B3", "level of GGA3-bound ARF after M-COPA treatment of the cells, relative to the untreated control": "< 18"}]}, {"biological_target": "T2, Golgi-specific BFA-resistance guanine nucleotide exchange factor 1 (human (endogenous in GIST-T1), UniProt Q92538 1-1860)", "T2 construct": "Golgi-specific BFA-resistance guanine nucleotide exchange factor 1 (GBF1), human, endogenous in GIST-T1 cells; Immunoprecipitated with an anti-GBF1 antibody on Dynabeads Protein G; also called GBF1; source: endogenous, GIST-T1 lysate", "T2 sequence (Q92538 whole entry)": "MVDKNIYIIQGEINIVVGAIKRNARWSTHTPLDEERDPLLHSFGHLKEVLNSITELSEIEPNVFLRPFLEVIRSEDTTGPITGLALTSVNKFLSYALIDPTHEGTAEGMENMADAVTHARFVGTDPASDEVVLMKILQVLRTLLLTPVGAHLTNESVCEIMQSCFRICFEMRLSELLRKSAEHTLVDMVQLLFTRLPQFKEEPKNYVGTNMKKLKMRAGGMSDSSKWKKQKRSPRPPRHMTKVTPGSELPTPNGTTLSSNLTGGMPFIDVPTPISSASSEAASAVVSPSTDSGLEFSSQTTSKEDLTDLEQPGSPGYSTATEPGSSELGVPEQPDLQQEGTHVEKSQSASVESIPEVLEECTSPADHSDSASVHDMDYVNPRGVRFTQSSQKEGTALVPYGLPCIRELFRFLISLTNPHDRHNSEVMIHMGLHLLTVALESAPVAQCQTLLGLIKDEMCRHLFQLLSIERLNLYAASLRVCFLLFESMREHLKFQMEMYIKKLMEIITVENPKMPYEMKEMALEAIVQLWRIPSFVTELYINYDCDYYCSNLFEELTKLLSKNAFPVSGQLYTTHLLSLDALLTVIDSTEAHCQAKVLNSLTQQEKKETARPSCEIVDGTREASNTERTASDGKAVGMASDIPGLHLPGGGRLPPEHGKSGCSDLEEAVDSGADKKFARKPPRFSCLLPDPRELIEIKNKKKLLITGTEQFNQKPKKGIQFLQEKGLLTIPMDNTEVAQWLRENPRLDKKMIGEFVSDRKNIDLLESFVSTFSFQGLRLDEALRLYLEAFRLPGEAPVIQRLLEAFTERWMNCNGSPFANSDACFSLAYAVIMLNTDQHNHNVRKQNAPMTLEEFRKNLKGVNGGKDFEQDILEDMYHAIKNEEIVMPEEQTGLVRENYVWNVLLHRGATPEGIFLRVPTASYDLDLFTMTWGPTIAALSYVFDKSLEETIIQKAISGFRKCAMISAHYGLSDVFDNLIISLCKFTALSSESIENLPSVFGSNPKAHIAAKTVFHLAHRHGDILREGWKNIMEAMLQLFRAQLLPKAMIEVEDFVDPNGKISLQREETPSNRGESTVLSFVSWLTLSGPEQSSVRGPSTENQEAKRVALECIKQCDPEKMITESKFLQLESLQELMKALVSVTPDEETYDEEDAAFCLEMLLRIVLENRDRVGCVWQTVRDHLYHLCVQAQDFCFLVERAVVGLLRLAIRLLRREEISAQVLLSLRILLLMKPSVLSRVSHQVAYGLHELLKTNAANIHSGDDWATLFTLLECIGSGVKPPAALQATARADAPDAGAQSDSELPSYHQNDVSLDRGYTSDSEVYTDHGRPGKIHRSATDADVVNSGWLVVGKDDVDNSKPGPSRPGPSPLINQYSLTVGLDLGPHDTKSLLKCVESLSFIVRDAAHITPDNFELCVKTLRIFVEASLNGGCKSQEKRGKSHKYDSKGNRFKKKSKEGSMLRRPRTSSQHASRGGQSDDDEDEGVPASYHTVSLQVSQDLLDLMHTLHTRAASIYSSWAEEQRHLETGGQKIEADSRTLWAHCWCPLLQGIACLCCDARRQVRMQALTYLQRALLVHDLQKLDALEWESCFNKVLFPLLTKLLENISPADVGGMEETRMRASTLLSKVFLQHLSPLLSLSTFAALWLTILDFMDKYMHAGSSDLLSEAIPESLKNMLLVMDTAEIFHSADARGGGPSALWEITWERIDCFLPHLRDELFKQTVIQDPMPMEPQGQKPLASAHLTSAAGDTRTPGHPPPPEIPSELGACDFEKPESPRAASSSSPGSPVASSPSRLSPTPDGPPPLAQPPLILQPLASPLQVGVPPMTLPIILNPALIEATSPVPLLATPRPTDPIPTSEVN", "assay": "co-IP; endogenous GBF1 immunoprecipitated from GIST-T1 lysate (NP-40 lysis buffer, 50 mM HEPES pH 7.4) with anti-GBF1 on Dynabeads Protein G, 4 °C, 5 h, immunoblot for ARFs; cells untreated or treated with 1 μM M-COPA for 4 h; co-precipitated ARF normalised to GBF1", "conditions": "partners not purified", "units": {"fold increase of ARF co-immunoprecipitated with GBF1 after M-COPA treatment, relative to the untreated control": "fold"}, "values": [{"binder": "B1", "fold increase of ARF co-immunoprecipitated with GBF1 after M-COPA treatment, relative to the untreated control": 8.66}, {"binder": "B2", "fold increase of ARF co-immunoprecipitated with GBF1 after M-COPA treatment, relative to the untreated control": 14.1}, {"binder": "B3", "fold increase of ARF co-immunoprecipitated with GBF1 after M-COPA treatment, relative to the untreated control": 6.89}]}]}
